{
  "source": "IntAct's records for PubMed 20080774",
  "parents": {"B1": {"name": "Nuclear factor of activated T-cells 5 (Homo sapiens), O94916-1 (parent)", "chain": "MPSDFISLLSADLDLESPKSLYSRESVYDLLPKELQLPPSRETSVASMSQTSGGEAGSPPPAVVAADASSAPSSSSMGGACSSFTTSSSPTIYSTSVTDSKAMQVESCSSAVGVSNRGVSEKQLTSNTVQQHPSTPKRHTVLYISPPPEDLLDNSRMSCQDEGCGLESEQSCSMWMEDSPSNFSNMSTSSYNDNTEVPRKSRKRNPKQRPGVKRRDCEESNMDIFDADSAKAPHYVLSQLTTDNKGNSKAGNGTLENQKGTGVKKSPMLCGQYPVKSEGKELKIVVQPETQHRARYLTEGSRGSVKDRTQQGFPTVKLEGHNEPVVLQVFVGNDSGRVKPHGFYQACRVTGRNTTPCKEVDIEGTTVIEVGLDPSNNMTLAVDCVGILKLRNADVEARIGIAGSKKKSTRARLVFRVNIMRKDGSTLTLQTPSSPILCTQPAGVPEILKKSLHSCSVKGEEEVFLIGKNFLKGTKVIFQENVSDENSWKSEAEIDMELFHQNHLIVKVPPYHDQHITLPVSVGIYVVTNAGRSHDVQPFTYTPDPAAAGALNVNVKKEISSPARPCSFEEAMKAMKTTGCNLDKVNIIPNALMTPLIPSSMIKSEDVTPMEVTAEKRSSTIFKTTKSVGSTQQTLENISNIAGNGSFSSPSSSHLPSENEKQQQIQPKAYNPETLTTIQTQDISQPGTFPAVSASSQLPNSDALLQQATQFQTRETQSREILQSDGTVVNLSQLTEASQQQQQSPLQEQAQTLQQQISSNIFPSPNSVSQLQNTIQQLQAGSFTGSTASGSSGSVDLVQQVLEAQQQLSSVLFSAPDGNENVQEQLSADIFQQVSQIQSGVSPGMFSSTEPTVHTRPDNLLPGRAESVHPQSENTLSNQQQQQQQQQQVMESSAAMVMEMQQSICQAAAQIQSELFPSTASANGNLQQSPVYQQTSHMMSALSTNEDMQMQCELFSSPPAVSGNETSTTTTQQVATPGTTMFQTSSSGDGEETGTQAKQIQNSVFQTMVQMQHSGDNQPQVNLFSSTKSMMSVQNSGTQQQGNGLFQQGNEMMSLQSGNFLQQSSHSQAQLFHPQNPIADAQNLSQETQGSLFHSPNPIVHSQTSTTSSEQMQPPMFHSQSTIAVLQGSSVPQDQQSTNIFLSQSPMNNLQTNTVAQEAFFAAPNSISPLQSTSNSEQQAAFQQQAPISHIQTPMLSQEQAQPPQQGLFQPQVALGSLPPNPMPQSQQGTMFQSQHSIVAMQSNSPSQEQQQQQQQQQQQQQQQQQSILFSNQNTMATMASPKQPPPNMIFNPNQNPMANQEQQNQSIFHQQSNMAPMNQEQQPMQFQSQSTVSSLQNPGPTQSESSQTPLFHSSPQIQLVQGSPSSQEQQVTLFLSPASMSALQTSINQQDMQQSPLYSPQNNMPGIQGATSSPQPQATLFHNTAGGTMNQLQNSPGSSQQTSGMFLFGIQNNCSQLLTSGPATLPDQLMAISQPGQPQNEGQPPVTTLLSQQMPENSPLASSINTNQNIEKIDLLVSLQNQGNNLTGSF", "partner": "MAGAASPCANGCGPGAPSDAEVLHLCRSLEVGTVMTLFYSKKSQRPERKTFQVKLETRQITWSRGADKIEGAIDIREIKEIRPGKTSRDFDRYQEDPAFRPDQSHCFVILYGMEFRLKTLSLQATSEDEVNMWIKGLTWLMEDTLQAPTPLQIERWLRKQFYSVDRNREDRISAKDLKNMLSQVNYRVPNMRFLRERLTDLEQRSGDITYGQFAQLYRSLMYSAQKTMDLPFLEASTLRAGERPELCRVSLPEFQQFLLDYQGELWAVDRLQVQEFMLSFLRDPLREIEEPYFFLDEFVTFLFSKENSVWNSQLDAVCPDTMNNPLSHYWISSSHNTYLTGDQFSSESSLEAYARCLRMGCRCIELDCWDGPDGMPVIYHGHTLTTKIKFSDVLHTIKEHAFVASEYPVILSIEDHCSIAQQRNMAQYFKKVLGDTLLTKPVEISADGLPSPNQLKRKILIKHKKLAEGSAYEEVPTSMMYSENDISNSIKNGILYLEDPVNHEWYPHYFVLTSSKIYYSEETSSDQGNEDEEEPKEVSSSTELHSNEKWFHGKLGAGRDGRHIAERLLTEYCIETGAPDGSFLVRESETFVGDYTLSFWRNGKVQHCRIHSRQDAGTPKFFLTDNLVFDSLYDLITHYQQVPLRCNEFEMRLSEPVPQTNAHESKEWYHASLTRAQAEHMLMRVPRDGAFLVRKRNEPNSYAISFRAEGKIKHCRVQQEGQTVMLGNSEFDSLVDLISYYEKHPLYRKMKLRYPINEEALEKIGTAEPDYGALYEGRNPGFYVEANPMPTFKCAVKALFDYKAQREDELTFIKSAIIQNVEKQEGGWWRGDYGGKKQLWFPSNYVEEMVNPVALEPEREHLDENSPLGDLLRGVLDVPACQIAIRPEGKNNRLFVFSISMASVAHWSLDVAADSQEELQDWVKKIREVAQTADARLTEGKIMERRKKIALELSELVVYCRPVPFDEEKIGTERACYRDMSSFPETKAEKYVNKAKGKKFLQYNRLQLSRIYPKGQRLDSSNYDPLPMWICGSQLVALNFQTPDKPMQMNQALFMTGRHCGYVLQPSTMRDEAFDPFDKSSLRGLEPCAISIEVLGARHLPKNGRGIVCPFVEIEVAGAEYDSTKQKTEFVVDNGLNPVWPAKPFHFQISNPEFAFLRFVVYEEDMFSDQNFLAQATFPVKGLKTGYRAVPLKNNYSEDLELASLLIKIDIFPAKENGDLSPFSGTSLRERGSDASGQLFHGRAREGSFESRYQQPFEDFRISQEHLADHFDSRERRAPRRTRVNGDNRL"}},
  "data": [
    {"variants_of": "B1", "conditions": "with plcg1_human PLCG1, P19174", "values": [
      {"variant": "Y143A", "effect of a mutation on the interaction": "decreasing interaction"}
    ]}
  ]
}
